Assay results as given in paper PMC4028250, “β1,6 GlcNAc Branches-Modified PTPRT Attenuates Its Activity and Promotes Cell Migration by STAT3 Pathway” (PLoS ONE, 2014).

Target: the molecule itself
Assay: cross-linking; Mock-7721, GnT-V-7721, Mock-HT29 and GnT-V-HT29 cells grown to confluence, cell-surface proteins cross-linked with 3 mM BS3 for 2 hours at 4°C (on ice), stopped with 20 mM Tris-Cl, SDS lysis, immunoblot for PTPRT; dimer and monomer bands quantified with Image J

B1: receptor protein tyrosine phosphatase rho (PTPRT) (receptor, human (endogenous in SMMC-7721 and HT29), UniProt O14522 26-1441, looked up)
chain: QSAAGGCSFDEHYSNCGYSVALGTNGFTWEQINTWEKPMLDQAVPTGSFMMVNSSGRASGQKAHLLLPTLKENDTHCIDFHYYFSSRDRSSPGALNVYVKVNGGPQGNPVWNVSGVVTEGWVKAELAISTFWPHFYQVIFESVSLKGHPGYIAVDEVRVLAHPCRKAPHFLRLQNVEVNVGQNATFQCIAGGKWSQHDKLWLQQWNGRDTALMVTRVVNHRRFSATVSVADTAQRSVSKYRCVIRSDGGSGVSNYAELIVKEPPTPIAPPELLAVGATYLWIKPNANSIIGDGPIILKEVEYRTTTGTWAETHIVDSPNYKLWHLDPDVEYEIRVLLTRPGEGGTGPPGPPLTTRTKCADPVHGPQNVEIVDIRARQLTLQWEPFGYAVTRCHSYNLTVQYQYVFNQQQYEAEEVIQTSSHYTLRGLRPFMTIRLRLLLSNPEGRMESEELVVQTEEDVPGAVPLESIQGGPFEEKIYIQWKPPNETNGVITLYEINYKAVGSLDPSADLSSQRGKVFKLRNETHHLFVGLYPGTTYSFTIKASTAKGFGPPVTTRIATKISAPSMPEYDTDTPLNETDTTITVMLKPAQSRGAPVSVYQLVVKEERLQKSRRAADIIECFSVPVSYRNASSLDSLHYFAAELKPANLPVTQPFTVGDNKTYNGYWNPPLSPLKSYSIYFQALSKANGETKINCVRLATKGASTQNSNTVEPEKQVDNTVKMAGVIAGLLMFIIILLGVMLTIKRRRNAYSYSYYLKLAKKQKETQSGAQREMGPVASADKPTTKLSASRNDEGFSSSSQDVNGFTDGSRGELSQPTLTIQTHPYRTCDPVEMSYPRDQFQPAIRVADLLQHITQMKRGQGYGFKEEYEALPEGQTASWDTAKEDENRNKNRYGNIISYDHSRVRLLVLDGDPHSDYINANYIDGYHRPRHYIATQGPMQETVKDFWRMIWQENSASIVMVTNLVEVGRVKCVRYWPDDTEVYGDIKVTLIETEPLAEYVIRTFTVQKKGYHEIRELRLFHFTSWPDHGVPCYATGLLGFVRQVKFLNPPEAGPIVVHCSAGAGRTGCFIAIDTMLDMAENEGVVDIFNCVRELRAQRVNLVQTEEQYVFVHDAILEACLCGNTAIPVCEFRSLYYNISRLDPQTNSSQIKDEFQTLNIVTPRVRPEDCSIGLLPRNHDKNRSMDVLPLDRCLPFLISVDGESSNYINAALMDSHKQPAAFVVTQHPLPNTVADFWRLVFDYNCSSVVMLNEMDTAQFCMQYWPEKTSGCYGPIQVEFVSADIDEDIIHRIFRICNMARPQDGYRIVQHLQYIGWPAYRDTPPSKRSLLKVVRRLEKWQEQYDGREGRTVVHCLNGGGRSGTFCAICSVCEMIQQQNIIDVFHIVKTLRNNKSNMVETLEQYKFVYEVALEYLSSF
modifications: N-glycans with β1,6 GlcNAc branches (tri- and tetra-antennary), more of them in GnT-V overexpressing cells; sites not mapped
notes: receptor protein tyrosine phosphatase rho (PTPRT), type IIB receptor-like PTP, endogenous in human SMMC-7721 and HT29 cells; One molecule for PTPRT of Mock and of GnT-V overexpressing cells: the two differ only in the amount of β1,6 GlcNAc branches on unmapped N-glycan sites; also called PTPRT (ρ); source: endogenous, SMMC-7721 and HT29 cells stably infected with pCDH-puro (Mock) or …
  intensity ratio of dimer to monomer, GnT-V cells against Mock cells: ~2 fold
  stoichiometry N: 2
